{"source": "paper PMC8166883", "about": "(2020)", "binders": {"B1": {"name": "FLAG-tagged human vascular endothelial growth factor-A (FLAG-hVEGF-A) (ligand)", "chain": "APMAEGGGQNHHEVVKFMDVYQRSYCHPIETLVDIFQEYPDEIEYIFKPSCVPLMRCGGCCNDEGLECVPTEESNITMQIMRIKPHQGQHIGEMSFLQHNKCECRPKKDRARQENPCGPCSERRKHLFVQDPQTCKCSCKNTDSRCKARQLELNERTCRCDKPRR"}}, "assay_in_all_cases": "SPR", "key": {"[1]": {"molecular_target": "B1"}, "B015": {"molecular_target": "B015"}, "B021": {"molecular_target": "B021"}}}
{"binder": "anti-hVEGF-A clone A033AM-19 (affinity-matured from A033) (antibody, V domains shown) VH: EVELVQSGAEVKKPGSSVKVSCKASGGTFSDYSISWVRQAPGQGLEWMGGIIPIFGTPNYAQKFQGRVTITADESTSTAYMELSSLRSEDTAVYYCADGGAYCGGDCYSGYYYYGMDVWGQGTTVTVSS VL: QSALTQPASVSGSPGQSITISCTGTSSDVGGYNLVSWYQQHPGKAPKLMIYQDNNKRPSGVSNRFSGSKSGNTASLTISGLQAEDEADYYCSYTNDSNSQVFGGGTKLTVL", "values": [{"measurement": "koff", "setting": "[1]", "value": 0.000411, "unit": "s⁻¹"}]}
{"binder": "anti-hVEGF-A clone A033 (antibody, V domains shown) VH: EVELVQSGAEVKKPGSSVKVSCKASGGTFSSYAISWVRQAPGQGLEWMGGIIPIFGTPNYAQKFQGRVTITADESTSTAYMELSSLRSEDTAVYYCADGGAYCGGDCYSGYYYYGMDVWGQGTTVTVSS VL: QSALTQPASVSGSPGQSITISCTGTSSDVGGYNLVSWYQQHPGKAPKLMIYQDNNKRPSGVSNRFSGSKSGNTASLTISGLQAEDEADYYCSYTNDSNSQVFGGGTKLTVL", "values": [{"measurement": "koff", "setting": "[1]", "value": 0.00405, "unit": "s⁻¹"}]}
{"binder": "B1", "values": [{"measurement": "Kd", "setting": "B015", "value": 29.4, "unit": "pM"}, {"measurement": "koff", "setting": "B015", "value": 0.000549, "unit": "s⁻¹"}, {"measurement": "Kd", "setting": "B021", "value": 903, "unit": "pM"}, {"measurement": "koff", "setting": "B021", "value": 0.000577, "unit": "s⁻¹"}]}
